This note sets out measurements from US20120114652A1 (AbbVie / Abbott, published 2012).

Numbering of substitutions follows the chain as printed.

T1: rat PAI-1 (rat, UniProt P20961 24-402)
T1 sequence: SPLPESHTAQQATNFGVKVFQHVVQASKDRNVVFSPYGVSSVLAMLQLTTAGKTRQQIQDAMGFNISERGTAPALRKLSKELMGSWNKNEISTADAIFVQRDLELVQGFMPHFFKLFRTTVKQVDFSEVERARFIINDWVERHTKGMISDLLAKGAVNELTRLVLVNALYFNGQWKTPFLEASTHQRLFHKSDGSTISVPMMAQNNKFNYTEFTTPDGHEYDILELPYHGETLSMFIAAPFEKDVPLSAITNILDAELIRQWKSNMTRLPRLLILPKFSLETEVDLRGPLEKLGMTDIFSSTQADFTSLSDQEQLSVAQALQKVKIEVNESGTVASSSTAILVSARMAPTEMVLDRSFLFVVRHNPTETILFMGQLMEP

T2: mouse PAI-1 (mouse, UniProt P22777 24-401)
T2 sequence: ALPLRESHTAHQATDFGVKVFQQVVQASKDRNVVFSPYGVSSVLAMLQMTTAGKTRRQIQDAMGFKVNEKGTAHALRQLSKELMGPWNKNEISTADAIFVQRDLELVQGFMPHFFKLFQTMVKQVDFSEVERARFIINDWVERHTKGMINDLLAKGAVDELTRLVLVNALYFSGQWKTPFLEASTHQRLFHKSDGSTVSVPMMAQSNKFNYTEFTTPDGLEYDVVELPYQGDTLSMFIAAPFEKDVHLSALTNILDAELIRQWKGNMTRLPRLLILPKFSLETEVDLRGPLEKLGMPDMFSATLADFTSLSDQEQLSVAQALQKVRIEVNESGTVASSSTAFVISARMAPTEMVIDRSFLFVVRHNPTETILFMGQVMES

B1: Antibody 11, scFv (scFv, V domains shown)
VH: QVQLQQSGAEVKKPGSSVKVSCKASGGTFSSYAISWMRQAPGQGLEWMGGIIPIFGTANYAQKFQGRVTITADESTSTAYMELSGLRSEDTAVYYCAREKRQWLEGHFDYWGRGTPVTVSS
VL: DIQMIQSPSFLSASTGDRVTITCQASEGIYHELAWYQQKPGKAPKLLIYRASSLASGAPSRFSGSGSGTDFTLTISSLQPDDFATYYCQQYSNYPLTFGGGTKLEIK
B2: Antibody 02, scFv (scFv, V domains shown)
VH: B1 VH with Q5V, M37V, I54T, G85S, P116L
VL: B1 VL with I5T, F10T, T15V, Q24R, E32S, R50K, A58V, D70E, N93D, L104V
B3: Antibody 25, scFv (scFv, V domains shown)
VH: B1 VH with M37V, I54T, K100R, R113Q
VL: B1 VL with I5T, T15I, Q24R, G28S, R50K, D70A
B4: Antibody 04, scFv (scFv, V domains shown)
VH: B1 VH with Q3R, M37V, I54T, Q65R, D73N, H107R, P116L
VL: B1 VL with I5T, T15I, V19I, Q24R, E32S, Y49H, S52T, A58T, S63G, T72A
B5: Antibody 12, scFv (scFv, V domains shown)
VH: B1 VH with M37V, I54T, G56P
VL: B1 VL with I5T, T15I, Q24R, E32N
B6: Antibody 19, scFv (scFv, V domains shown)
VH: B1 VH with M37V, G56D, K100R
VL: B1 VL with Q3R, I5T, T15I, Q24R, D70E
B7: Antibody 13, scFv (scFv, V domains shown)
VH: B1 VH with M37V, I54T, G85D
VL: B1 VL with I5T, T15I, Q24R, E32S
B8: Antibody 21, scFv (scFv, V domains shown)
VH: B1 VH with Q1P, M37V, I54T
VL: B1 VL with I5A, T15I, Q24R, E32N
B9: Antibody 26, scFv (scFv, V domains shown)
VH: B1 VH with S16T, M37V, G85S
VL: B1 VL with I5T, T15I, Q24R, E32T
B10: Antibody 03, scFv (scFv, V domains shown)
VH: B1 VH with M37V, I54T
VL: B1 VL with I5T, T15I, Q24R, H31R, E32S, R50K, S77G
B11: Antibody 17, scFv (scFv, V domains shown)
VH: B1 VH with M37V, I54T
VL: B1 VL with I5T, T15I, Q24R
B12: Antibody 07, scFv (scFv, V domains shown)
VH: B1 VH with M37V, M48V, I54T
VL: B1 VL with I5A, T15I, Q24R
B13: Antibody 23, scFv (scFv, V domains shown)
VH: B1 VH with M37V, I54T, G66S
VL: B1 VL with I5T, T15I, Q24R, E32S
B14: Antibody 24, scFv (scFv, V domains shown)
VH: B1 VH with M37V, I54T, G56V, T69S
VL: B1 VL with I5T, T15I, Q24R, E32A
B15: Antibody 06, scFv (scFv, V domains shown)
VH: B1 VH with M37V, I54T
VL: B1 VL with I5T, T15I, Q24R, G100R
B16: Antibody 05, scFv (scFv, V domains shown)
VH: B1 VH with M37V, I54T, G56S, Q65R
VL: B1 VL with I5T, T15I, Q24R, E32Q
B17: Antibody 22, scFv (scFv, V domains shown)
VH: B1 VH with S31G, M37V, I54T, A61S
VL: B1 VL with I5T, P8L, T15I, Q24R, E32A

In the first assay the target is human PAI-1, active, wild-type, non-glycosylated (E. coli-derived) (human, UniProt P05121 24-402). The experiment in a line: cell-based or functional assay.
As for B1, the IC50 chromogenic turned out to be 102 nM.

As for B2, the IC50 chromogenic was 0.6 nM.

Take B3: the IC50 chromogenic was 13.1 nM.

Take B4: the IC50 chromogenic came to 6.6 nM.

For B5, the IC50 chromogenic was determined as 2.3 nM.

The molecule B6 registered an IC50 chromogenic of 26 nM.

Turning to B7, the IC50 chromogenic is 2.9 nM.

Regarding B8, the IC50 chromogenic stood at 4.1 nM.

B9 yielded an IC50 chromogenic of 4 nM.

B10 returned an IC50 chromogenic of 1.8 nM.

On to B11, for which the IC50 chromogenic came out at 71.5 nM.

As for B12, the IC50 chromogenic was 187 nM.

B13 had an IC50 chromogenic of 1.6 nM.

Turning to B14, the IC50 chromogenic was 3.2 nM.

In turn, B15 gave an IC50 chromogenic of 74.6 nM.

B16 returned an IC50 chromogenic of 5 nM.

On to B17, for which the IC50 chromogenic was found to be 5 nM.

Another assay has as its target cynomolgus PAI-1 (cynomolgus, UniProt P05121 24-402 (human entry), limits assumed). Nature of the assay: cell-based or functional assay.
For B1, the IC50 chromogenic was 43.8 nM and the IC50 ratio cyno/human stood at 0.4.

Regarding B2, the IC50 chromogenic is 1.1 nM and the IC50 ratio cyno/human was found to be 1.8.

In the case of B3, the IC50 chromogenic worked out at 4.6 nM and the IC50 ratio cyno/human turned out to be 0.4.

With B4, the IC50 chromogenic came to 2.1 nM and the IC50 ratio cyno/human was 0.3.

B5: the IC50 chromogenic amounted to 0.6 nM and the IC50 ratio cyno/human stood at 0.3.

Consider B6, for which the IC50 chromogenic was 10.8 nM and the IC50 ratio cyno/human amounted to 0.4.

Regarding B7, the IC50 chromogenic was 1.2 nM and the IC50 ratio cyno/human is 0.4.

For B8, the IC50 chromogenic amounted to 1.6 nM and the IC50 ratio cyno/human came to 0.4.

For the molecule B9, the IC50 chromogenic was 1.2 nM and the IC50 ratio cyno/human was 0.3.

For the molecule B10, the IC50 chromogenic was found to be 0.1 nM and the IC50 ratio cyno/human came out at 0.1.

As to B11, the IC50 chromogenic came to 41.5 nM and the IC50 ratio cyno/human amounted to 0.6.

Take B12: the IC50 chromogenic amounted to 117 nM and the IC50 ratio cyno/human was determined as 0.6.

B13: the IC50 chromogenic was found to be 0.5 nM and the IC50 ratio cyno/human was found to be 0.3.

For B14, the IC50 chromogenic is 1.1 nM and the IC50 ratio cyno/human turned out to be 0.3.

For B15, the IC50 chromogenic was 31.6 nM and the IC50 ratio cyno/human turned out to be 0.4.

In the case of B16, the IC50 chromogenic stood at 0.5 nM and the IC50 ratio cyno/human was determined as 0.1.

Regarding B17, the IC50 chromogenic was 1.5 nM and the IC50 ratio cyno/human came out at 0.3.

Another assay concerns the target T1, rat PAI-1. The experiment in a line: cell-based or functional assay.
B1: the IC50 chromogenic was found to be 59.5 nM and the IC50 ratio rat/human turned out to be 0.6.

On to B2, for which the IC50 chromogenic was determined as 530 nM and the IC50 ratio rat/human was 891.

Turning to B3, the IC50 chromogenic came to 322 nM and the IC50 ratio rat/human came out at 24.6.

As to B4, the IC50 chromogenic was 340 nM and the IC50 ratio rat/human was determined as 51.4.

With B5, the IC50 chromogenic is 78.2 nM and the IC50 ratio rat/human was 34.4.

For B6, the IC50 chromogenic was 7.9 nM and the IC50 ratio rat/human is 0.3.

For B7, the IC50 chromogenic was determined as 140 nM and the IC50 ratio rat/human is 48.6.

In the case of B8, the IC50 chromogenic is 49.2 nM and the IC50 ratio rat/human was 12.

With B9, the IC50 chromogenic came out at 245 nM and the IC50 ratio rat/human turned out to be 61.4.

On to B10, for which the IC50 chromogenic stood at 297 nM and the IC50 ratio rat/human was determined as 165.

Regarding B11, the IC50 chromogenic turned out to be 24.9 nM and the IC50 ratio rat/human turned out to be 0.3.

As for B12, the IC50 chromogenic amounted to 91 nM and the IC50 ratio rat/human was found to be 0.5.

B13: the IC50 chromogenic is 376 nM and the IC50 ratio rat/human is 229.

Consider B14, for which the IC50 chromogenic came to 127 nM and the IC50 ratio rat/human came to 39.3.

B15: the IC50 chromogenic was found to be 37.1 nM and the IC50 ratio rat/human amounted to 0.5.

Take B16: the IC50 chromogenic was determined as 860 nM and the IC50 ratio rat/human was 172.

In the case of B17, the IC50 chromogenic is 406 nM and the IC50 ratio rat/human is 81.2.

The target in the next assay is T2, mouse PAI-1. The experiment in a line: cell-based or functional assay.
B1: the IC50 chromogenic came to 33.6 nM and the IC50 ratio mouse/human was found to be 0.3.

Consider B2, for which the IC50 chromogenic stood at 553 nM and the IC50 ratio mouse/human stood at 929.

In the case of B3, the IC50 chromogenic is 172 nM and the IC50 ratio mouse/human worked out at 13.1.

For B4, the IC50 chromogenic is 264 nM and the IC50 ratio mouse/human stood at 39.9.

B5: the IC50 chromogenic was determined as 27.8 nM and the IC50 ratio mouse/human came out at 12.2.

In the case of B6, the IC50 chromogenic amounted to 6.4 nM and the IC50 ratio mouse/human worked out at 0.2.

For the molecule B7, the IC50 chromogenic stood at 247 nM and the IC50 ratio mouse/human was 85.8.

In the case of B8, the IC50 chromogenic came to 32.2 nM and the IC50 ratio mouse/human came out at 7.9.

Turning to B9, the IC50 chromogenic amounted to 211 nM and the IC50 ratio mouse/human came to 52.9.

B10: the IC50 chromogenic came to 54.9 nM and the IC50 ratio mouse/human came out at 30.5.

Turning to B11, the IC50 chromogenic was 26.2 nM and the IC50 ratio mouse/human stood at 0.4.

For B12, the IC50 chromogenic was 143 nM and the IC50 ratio mouse/human was 0.8.

For B13, the IC50 chromogenic was found to be 376 nM and the IC50 ratio mouse/human worked out at 229.

As for B14, the IC50 chromogenic was found to be 140 nM and the IC50 ratio mouse/human came out at 43.3.

B15: the IC50 chromogenic stood at 48.2 nM and the IC50 ratio mouse/human was 0.6.

For the molecule B16, the IC50 chromogenic was 718 nM and the IC50 ratio mouse/human came to 144.

As for B17, the IC50 chromogenic was 413 nM and the IC50 ratio mouse/human is 82.6.
